Values of other authors as cited in PMC4729772 (Theranostics, 2016).

**Q.** For “Albiglutide: glucagon-like peptide-1 dimer fused to human albumin”, which half-life is on record?
**A.** four to seven
